Reference: PMC12126530, “A low-complexity linker as a driver of intra- and intermolecular interactions in DNAJB chaperones” (Nature Communications, 2025)
Blank lines part the entries; values can stand above or below the binder they belong to.

Columns and labels:
Settings in all cases: both partners purified
[1] = target: T1, Full-length Hsc70-T204A (ATPase deficient mutant) (human, UniProt P11142 1-646, T204A); assay: NMR 15N-CPMG relaxation dispersion and exchange-induced shifts; 15N-labelled JDP observed, unlabelled Hsc70-T204A added to a molar ratio of 0.1 (DNAJB6 JD-GF 200 uM, DNAJB6 JD 350 uM, DNAJB1 300 uM); 25 °C; 20 mM HEPES pH 7.0, 50 mM KCl, 2.5 mM MgCl2; ATP-regenerating system with 2.5 mM ATP; fit to a two-state binding model
T1 construct: Hsc70, the constitutively expressed cytosolic form of human Hsp70; full length with the ATPase-deficient mutation T204A; source: pET-15b vector, expression at 25 °C overnight, purified (StrepTactin, TEV cleavage, Superdex 200)

[2] = target: T1, Full-length Hsc70-T204A (ATPase …); assay: fluorescence polarisation; direct binding: Hsc70-T204A titrated into 300 nM fluorescein-labelled DNAJB6 JD; 25 °C; 20 mM HEPES pH 7.0, 50 mM KCl, 5 mM MgCl2, 5 mM ATP; four-point logistic fit, 1:1 model
[3] = target: T2, Full-length Hsc70-T204A (ATPase deficient mutant) (human, UniProt P11142 1-646, T204A); assay: NMR 15N-CPMG relaxation dispersion with exchange-induced shifts; 15N-labelled JDP (DNAJB6 JD-GF 200 μM, DNAJB6 JD 350 μM, DNAJB1 300 μM) with unlabelled Hsc70-T204A at a molar ratio of 0.1, ATP-regenerating system, 20 mM HEPES pH 7.0, 50 mM KCl, 2.5 mM MgCl2, 25 °C, 600, 800 and 950 MHz; fit to a 2-state model; kex = kon app + koff
T2 construct: Hsc70, the constitutively expressed cytosolic form of human Hsp70, full length, with T204A; 5 mM ATP in fluorescence polarisation; also called hydrolysis deficient Hsc70 mutant T204A; source: pET-15b vector, expressed at 25 °C overnight, purified (StrepTactin, TEV cleavage, Superdex 200)

Kd [1]: 288 ± 13 µM
koff [1]: 1700 ± 40 s⁻¹
kon [1]: 5.91e+06 M⁻¹ s⁻¹
B1: DNAJB1 JD-GF (domain or fragment)
chain: not shown
modifications: 15N-labelled; limits by convention: ends just before helix 5 (DNAJB6 helix 5 is 96-104, and DNAJB6 F91 aligns with DNAJB1 Y92, giving about 97-105); start as in PDB 6Z5N

Kd [2]: 18 ± 6.5 µM
B2: Fluorescently labelled DNAJB6 JD (with an additional C-terminal GSSC sequence) (domain or fragment)
chain: not shown
modifications: Fluorescein-5-Maleimide on the C-terminal cysteine
notes: DNAJB6 J-domain construct; not shown: His-tag, N-terminal, cleaved

Kd [3]: ~300 µM
B3: DNAJB1 JD-GF (domain or fragment)
chain: not shown
modifications: 15N-labelled; limits by convention: ends just before helix 5 (DNAJB6 helix 5 is 96-104, and DNAJB6 F91 aligns with DNAJB1 Y92, giving about 97-105); start as in PDB 6Z5N

Kd [1]: 3.4 ± 1.1 µM
koff [1]: 2740 ± 51 s⁻¹
kon [1]: 8e+08 M⁻¹ s⁻¹
B4: DNAJB6 JD (domain or fragment)
chain: not shown
notes: DNAJB6, construct truncated immediately after the J-domain; 15N-labelled for NMR; also called isolated JD of DNAJB6; DNAJB6 J-domain; source: E. coli BL21(DE3), purified (HisTrap, TEV cleavage, C18 reverse phase HPLC); not shown: His-tag, N-terminal, cleaved

Kd [1]: ~450 µM
B5: DNAJB1 JD (domain or fragment)
chain: not shown
notes: DNAJB1, construct truncated immediately after the J-domain; also called DNAJB1 1-67; JD of DNAJB1; source: E. coli BL21(DE3), purified (HisTrap, TEV cleavage, C18 reverse phase HPLC); not shown: His-tag, N-terminal, cleaved
